EP0556111A1

Tests used:
[1] = biological target: reagent Mα2-3/peroxidase, obtained by classical chemical coupling
[2] = biological target: hybrid F(ab)₂-PhoA (complex hybrid protein alkaline phosphatase/F(ab)₂ of antibody Mα2-3) (E. coli) [phosphatase: P00634]

Work on toxin alpha (from UniProt P01426) yielded an IC50 [1] of 9 nM and an IC50 [2] of 20 nM.
